Reference: patent US8623997B2, “Variant Hhip1 protein and methods and uses thereof” (Curis, Inc., priority 2008, dated 2014)
Substitutions are numbered along the chain they refer to. Numbers in names are those of the source.

B1: Hhip1β1: β-propeller-EGF1 construct (SEQ ID NO:13), residues 193-637 of SEQ ID NO:2 (protein, listed as Homo sapiens)
chain: SNYLDQMEEYDKVEEISRKHKHNCFCIQEVVSGLRQPVGALHSGDGSQRLFILEKEGYVKILTPEGEIFKEPYLDIHKLVQSGIKGGDERGLLSLAFHPNYKKNGKLYVSYTTNQERWAIGPHDHILRVVEYTVSRKNPHQVDLRTARVFLEVAELHRKHLGGQLLFGPDGFLYIILGDGMITLDDMEEMDGLSDFTGSVLRLDVDTDMCNVPYSIPRSNPHFNSTNQPPEVFAHGLHDPGRCAVDRHPTDININLTILCSDSNGKNRSSARILQIIKGKDYESEPSLLEFKPFSNGPLVGGFVYRGCQSERLYGSYVFGDRNGNFLTLQQSPVTKQWQEKPLCLGTSGSCRGYFSGHILGFGEDELGEVYILSSSKSMTQTHNGKLYKIVDPKRPLMPEECRATVQPAQTLTSECSRLCRNGYCTPTGKCCCSPGWEGDFCRTA
B2: Hhip1ECD: Hhip1 extracellular domain construct (SEQ ID NO:11), residues 20-667 of SEQ ID NO:2 (protein, listed as Homo sapiens)
chain: SNYLDQMEEYDKVEEISRKHKHNCFCIQEVVSGLRQPVGALHSGDGSQRLFILEKEGYVKILTPEGEIFKEPYLDIHKLVQSGIKGGDERGLLSLAFHPNYKKNGKLYVSYTTNQERWAIGPHDHILRVVEYTVSRKNPHQVDLRTARVFLEVAELHRKHLGGQLLFGPDGFLYIILGDGMITLDDMEEMDGLSDFTGSVLRLDVDTDMCNVPYSIPRSNPHFNSTNQPPEVFAHGLHDPGRCAVDRHPTDININLTILCSDSNGKNRSSARILQIIKGKDYESEPSLLEFKPFSNGPLVGGFVYRGCQSERLYGSYVFGDRNGNFLTLQQSPVTKQWQEKPLCLGTSGSCRGYFSGHILGFGEDELGEVYILSSSKSMTQTHNGKLYKIVDPKRPLMPEECRATVQPAQTLTSECSRLCRNGYCTPTGKCCCSPGWEGDFCRTAKCEPACRHGGVCVRPNKCLCKKGYLGPQCE
B3: T418A: L3 loop single alanine variant made in the Hhip1β12 construct (protein)
chain: SNYLDQMEEYDKVEEISRKHKHNCFCIQEVVSGLRQPVGALHSGDGSQRLFILEKEGYVKILTPEGEIFKEPYLDIHKLVQSGIKGGDERGLLSLAFHPNYKKNGKLYVSYTTNQERWAIGPHDHILRVVEYTVSRKNPHQVDLRTARVFLEVAELHRKHLGGQLLFGPDGFLYIILGDGMITLDDMEEMDGLSDFTGSVLRLDVDTDMCNVPYSIPRSNPHFNSANQPPEVFAHGLHDPGRCAVDRHPTDININLTILCSDSNGKNRSSARILQIIKGKDYESEPSLLEFKPFSNGPLVGGFVYRGCQSERLYGSYVFGDRNGNFLTLQQSPVTKQWQEKPLCLGTSGSCRGYFSGHILGFGEDELGEVYILSSSKSMTQTHNGKLYKIVDPKRPLMPEECRATVQPAQTLTSECSRLCRNGYCTPTGKCCCSPGWEGDFCRTAKCEPACRHGGVCVRPNKCLCKKGYLGPQCEHHHHHH
B4: I312A: L1 loop single alanine variant made in the Hhip1β12 construct (protein)
chain: B3 chain with I120A, A226T
B5: Q420A: L3 loop single alanine variant made in the Hhip1β12 construct (protein)
chain: B3 chain with A226T, Q228A
B6: E381A: L2 loop single alanine variant made in the Hhip1β12 construct (protein)
chain: B3 chain with E189A, A226T
B7: D378A: L2 loop single alanine variant made in the Hhip1β12 construct (protein)
chain: B3 chain with D186A, A226T
B8: D387A: L2 loop single alanine variant made in the Hhip1β12 construct (protein)
chain: B3 chain with D195A, A226T
B9: E380A: L2 loop single alanine variant made in the Hhip1β12 construct (protein)
chain: B3 chain with E188A, A226T
B10: M382A: L2 loop single alanine variant made in the Hhip1β12 construct (protein)
chain: B3 chain with M190A, A226T
B11: D383A: L2 loop single alanine variant made in the Hhip1β12 construct (protein)
chain: B3 chain with D191A, A226T

target: T1, biotinylated-ShhN-Cys (Homo sapiens, UniProt Q15465); experiment: Bio-layer interferometry (Octet) binding kinetics of Hhip1β12 variants to Shh; conditions: 10 mM EDTA
T1 construct: ShhN-Cys (residues 24-197); His6 (N); made in house; host or cells: E. coli Rosetta 2
Method: The binding kinetics of the Hhip1β12 fragments as well as Hhip1β12 mutants were measured by bio-layer interferometry in the presence or absence of 10 mM EDTA on an Octet (Fortébio). Streptavidin high binding FA biosensors were loaded with biotinylated-ShhN-Cys in kinetic buffer (Fortébio). The loaded biosensors were washed and transferred to wells containing Hhip1β12 protein at concentrations of 1.2, 1.0, 0.8 and 0.6 μM in kinetic buffer. Hhip1β12 association and dissociation was measured for 30 and 20 min, respectively. Kinetic parameters (kon and koff) and affinities (KD) were calculated from a non-linear fit of the data based on a 1:1 binding model between Hhip1β12 and Shh using the Octet software. Multiple independent measurements were performed.
In order to assess the contribution of residues in the Hhip1 L1, L2 and L3 loops for binding to Shh, a series of single alanine Hipβ12 mutants were made using the QuickChange DNA mutagenesis kit (Stratagene) using the manufacturer's protocol, and their affinity for Shh was measured by bio-layer interferometry (as described in Example 2B). These mutations included Hhip1β12 mutants 1312A, E381A, M382A, D383A, D378A, T418A, Q420A, E380A, D387A and ΔL2.

Question: Which “binding to Shh in the presence of EDTA” value does the source give for B1 here?
Answer: completely abolished

same assay, conditions: 1:1 binding model; n.d stands for no binding detected

Question: What does the source list for B1?
Answer: Kd: 150 nM; koff × 10^−4: 2.3 × 10^−4 [s^−1]; kon × 10^3: 1.5 × 10^3 [M^−1 × s^−1]

Question: B2 was tested. Which Kd did it give?
Answer: 67 nM

Question: What about the “koff × 10^−4” value of the same molecule?
Answer: 7.9 × 10^−4 [s^−1]

Question: What about the “kon × 10^3” value of the same molecule?
Answer: 1.2 × 10^3 [M^−1 × s^−1]

Question: How did the Kd turn out when B3 was run?
Answer: 270 nM

Question: What about the “koff × 10^−4” value of the same molecule?
Answer: 9.0 × 10^−4 [s^−1]

Question: What about the “kon × 10^3” value of the same molecule?
Answer: 3.4 × 10^3 [M^−1 × s^−1]

Question: How did the Kd turn out when B4 was run?
Answer: 320 nM

Question: What about the “koff × 10^−4” value of the same molecule?
Answer: 4.8 × 10^−4 [s^−1]

Question: What about the “kon × 10^3” value of the same molecule?
Answer: 1.5 × 10^3 [M^−1 × s^−1]

Question: For B5, which Kd is on record?
Answer: 500 nM

Question: And the “koff × 10^−4” value?
Answer: 11.0 × 10^−4 [s^−1]

Question: What about the “kon × 10^3” value of the same molecule?
Answer: 2.1 × 10^3 [M^−1 × s^−1]

Question: With B6 as the molecule, how does the Kd read?
Answer: 300 nM

Question: What about the “koff × 10^−4” value of the same molecule?
Answer: 3.3 × 10^−4 [s^−1]

Question: What about the “kon × 10^3” value of the same molecule?
Answer: 1.1 × 10^3 [M^−1 × s^−1]

Question: How did the Kd turn out when B7 was run?
Answer: 2400 nM

Question: What about the “koff × 10^−4” value of the same molecule?
Answer: 3.6 × 10^−4 [s^−1]

Question: What about the “kon × 10^3” value of the same molecule?
Answer: 0.15 × 10^3 [M^−1 × s^−1]

same assay, conditions: bio-layer interferometry, compared with WT Hhip1β12

Question: Which “Shh binding of Hhip1β12 mutants (in words)” value (from here on “Shh binding”) does the source give for B3 here?
Answer: little effect on Shh

Question: With B8 as the molecule, how does the “Shh binding” value read?
Answer: abolished binding to Shh

Question: How did the “Shh binding” value turn out when B9 was run?
Answer: minor to moderate effects on Shh binding

Question: For B10, which “Shh binding” value is on record?
Answer: abolished binding to Shh

Question: B5 was tested. Which “Shh binding” value did it give?
Answer: little effect on Shh

Question: How did the “Shh binding” value turn out when B11 was run?
Answer: inability

Question: For B7, which “Shh binding” value is on record?
Answer: minor to moderate effects on Shh binding

same assay, conditions: bio-layer interferometry, compared with WT Hhip1β12; listed as 1312A

Question: B4 was tested. Which “Shh binding” value did it give?
Answer: little effect on Shh

same assay, conditions: bio-layer interferometry, compared with WT Hhip1β12; listed as E380

Question: Which “Shh binding” value does the source give for B9 here?
Answer: abolished binding to Shh

system: Shh signaling; experiment: Gli-luciferase co-culture signaling assay (S12 fibroblasts overlaid with Shh-producing HT29 cells); format: cell-based, murine S12 fibroblasts / human HT29 cells; conditions: Gli-luciferase co-culture
Text: Due to the lack of both N- and C-terminal lipid modifications of Shh and the absence of other cellular components, the in vitro assays may not fully recapitulate Hip-Shh interactions occurring in a cellular environment. Therefore, a co-culture assay consisting of murine S12 fibroblasts stably transfected with a Gli luciferase reporter gene and (Frank-Kamenetsky et al. (2002) J. Biol. 1:10) and human colorectal adenocarcinoma HT29 cells that secrete fully lipid-modified Shh (Yauch et al. (2008) Nature 455:406) was used to determine which extracellular domains of Hhip1β12 mediate inhibition of Shh signaling in mammalian cells.
Briefly, S12 cells, which are 10T1/2 fibroblasts stably transfected with 8× Gli-binding sites fused to a luciferase reporter (Frank-Kamenetsky et al. (2002) J. Biol. 1:10), were plated at 10,000 cells/well of a white-walled clear bottomed 96-well plate (Costar 3610) for […] in regular growth medium (HG-DMEM, 10% FBS, 1% glutamine). After 24 h, the media was removed and Shh-producing HT29 cells at 20,000 cells/well were plated and the co-culture was grown in regular media. After 24 h, the media was changed to 0.5% serum HG-DMEM±Hhip1β12 fragments and further incubated for 24 hrs to stimulate signaling. Gli-luciferase activity was measured using a HTS-Steady Lite luciferase detection kit (Perkin Elmer); multiple assays were carried out, each in triplicate. Data were fit to a 4-parameter sigmoidal equation, from which the IC50 was derived using Kaleidagraph (Synergy Software).

Question: How did the “IC50 fold higher than Hhip1ECD” value turn out when B1 was run?
Answer: about 4 fold

Question: Which “inhibitory activity (in words)” value does the source give for B4 here?
Answer: essentially identical to wildtype Hhip1β12

Question: Which “inhibitory activity (in words)” value does the source give for B11 here?
Answer: retained activity

same assay, conditions: Gli-luciferase co-culture, 24 hrs; read-out: IC50 inhibition of Shh signaling

Question: With B1 as the molecule, how does the IC50 read?
Answer: 20.3 nM

Question: B2 was tested. Which IC50 did it give?
Answer: 5.3 nM

same assay, conditions: at saturating conditions

Question: B11 was tested. Which maximal inhibition did it give?
Answer: ~85%
